Here are results for 4 compounds from PMC4323659 (Scientific Reports, 2015).

Data set [1] deals with T1, VmoLac (Vulcanisaeta moutnovskia, UniProt F0QXN6).
T1 construct: gene VMUT_2255; full length, 315 residues; Strep tag removed by TEV protease; E. coli BL21(DE3)-pGro7/GroEL; homodimer; bi-cobalt enzyme
It counts as biochemical.

The target of data set [2] is T1, VmoLac. It counts as binding.
A further data set concerns CCCC1CCC(=O)O1. Briefly: purified protein. The conditions noted are these: pH 8.3; 25.0 °C.
The test system of data set [3] is CCCCCC(=O)CC(=O)N[C@H]1CCOC1=O. Nature of the data set: purified protein. The conditions noted are these: pH 8.3; 25.0 °C.
The test system of the next data set is CCCCCC1CCC(=O)O1. Briefly: purified protein. The conditions noted are these: pH 8.3; 25.0 °C.
The test system of the next data set is CCCCCCCCC1CCC(=O)O1. Briefly: purified protein. The conditions noted are these: pH 8.3; 25.0 °C.
A further data set deals with CCCCC1CCCC(=O)O1. Briefly: purified protein. The conditions noted are these: pH 8.3; 25.0 °C.
The next data set has as its system CCC1CCC(=O)O1. Nature of the data set: purified protein. The conditions noted are these: pH 8.3; 25.0 °C.
The next data set deals with CCCCCCCC(=O)NC1CCOC1=O. Briefly: purified protein. The conditions noted are these: pH 8.3; 25.0 °C.
In the next data set the test system is CCCCCCCC1CCCC(=O)O1. Briefly: purified protein. The conditions noted are these: pH 8.3; 25.0 °C.
Data set [4] concerns CCCCCCCC(=O)CC(=O)N[C@H]1CCOC1=O. Briefly: purified protein. The conditions noted are these: pH 8.3; 25.0 °C.
The test system of a further data set is CCCCCCC1CCCC(=O)O1. Nature of the data set: purified protein. The conditions noted are these: pH 8.3; 25.0 °C.

One may read the Km as the concentration of substrate that gives half-maximal velocity. `CCOP(=O)(OCC)Oc1ccc([N+](=O)[O-])cc1` [I, ethyl-paraoxon]: on VmoLac [1] (HEPES 50 mM pH 8, NaCl 150 mM, CoCl2 0.2 mM, 25°C), the Km was 581 ± 61 µM.
In the case of `CC(=O)Oc1ccc([N+](=O)[O-])cc1` [VIII, pNP-Acetate], the “KM (μM)” value on VmoLac [1] is 4 471 ± 593 μM.
`CCCCCCCC(=O)CC(=O)N[C@H]1CCOC1=O` [XVI, 3-oxo C10 AHL]: on VmoLac [2], the “X-ray crystal structure, soaked crystal, 2.0 Å” value is “Crystals of VmoLac were soaked with 3-oxo-C10 AHL, and the lactone sits”.
In general, kcat/Km refers to the turnover number divided by the Michaelis constant. With “VmoLac (Vulcanisaeta moutnovskia 768-28)”, the Km turned out to be 872 ± 220 µM with CCCC1CCC(=O)O1; 186 ± 37 µM in data set [3]; 47 ± 11 µM in the data set on CCCCCC1CCC(=O)O1; 1220 ± 59 µM with CCCCC1CCCC(=O)O1; 3709 ± 497 µM in the data set on CCC1CCC(=O)O1; 262 ± 54 µM in the data set on CCCCCCCC(=O)NC1CCOC1=O. Moreover, the Km in data set [4] stood at 231 ± 55 µM; with CCCCCCC1CCCC(=O)O1 it was 105 ± 24 µM. For the same compound, the kcat/Km in the data set with CCCC1CCC(=O)O1 was 31200 ± 8600 M⁻¹ s⁻¹; in data set [3] it was 1880 ± 380 M⁻¹ s⁻¹; with CCCCCC1CCC(=O)O1, 948000 ± 218000 M⁻¹ s⁻¹; in the data set on CCCCCCCCC1CCC(=O)O1 it was 77700 ± 24000 M⁻¹ s⁻¹; in the data set on CCCCC1CCCC(=O)O1, 72900 ± 3700 M⁻¹ s⁻¹; in the data set with CCC1CCC(=O)O1 it was 30300 ± 4600 M⁻¹ s⁻¹. The kcat/Km was found to be 2230 ± 480 M⁻¹ s⁻¹ in the data set on CCCCCCCC(=O)NC1CCOC1=O, 2050 ± 500 M⁻¹ s⁻¹ in [4] and 580000 ± 132000 M⁻¹ s⁻¹ in the data set on CCCCCCC1CCCC(=O)O1. The K0.5 with CCCCCCCCC1CCC(=O)O1 amounted to 2.1 ± 0.6 µM; in the data set with CCCCCCCC1CCCC(=O)O1, 839 ± 13 µM.
